Source: article PMC3384007, “Crystal Structure of the VapBC Toxin–Antitoxin Complex from Shigella flexneri Reveals a Hetero-Octameric DNA-Binding Assembly” (Journal of Molecular Biology, 2011)

T1: VapBC complex (VapB:His6-VapC), hetero-octamer VapB4C4 (Shigella flexneri (plasmid pMYSH6000), UniProt O06663;O06662 1-75;1-132)
T1 sequence 1: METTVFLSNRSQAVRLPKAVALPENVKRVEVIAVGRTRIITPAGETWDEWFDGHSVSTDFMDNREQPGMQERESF
T1 sequence 2: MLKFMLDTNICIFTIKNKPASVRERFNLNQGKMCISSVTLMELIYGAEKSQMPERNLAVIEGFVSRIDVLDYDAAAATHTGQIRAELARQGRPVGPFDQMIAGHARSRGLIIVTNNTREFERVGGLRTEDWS


Legend:
[1] = molecular target: the molecule itself; assay: cross-linking; purified VapBC complex 1 mg/ml in 100 mM sodium borate pH 9.1 with dimethyl superimidate (DMSI), aliquots after 5-120 min, 15% Coomassie-stained SDS-PAGE
[2] = molecular target: the molecule itself; assay: crystal structure; His6-VapB:VapC complex, 7 mg/ml; crystals in 0.1 M Bis-Tris pH 5.5, 1 M ammonium sulfate, 0.5% (v/v) PEG 3350, 19 °C; 2.7 Å; four copies of each protein in the asymmetric unit (VapB4C4)
[3] = molecular target: T1, VapBC complex (VapB:His6-VapC), …; assay: EMSA; single shift, highest affinity site; 2.5 ng/ul VapBC, 0.1 mg/ml salmon sperm DNA; settings: protein: recombinant; tags: His6 on VapC; chain copies: 4;4; label: 5'-32P on SF-EMSA2-f; blunt

| Binder | stoichiometry N [1] | stoichiometry N [2] | binding result [3] |
| --- | --- | --- | --- |
| Shigella flexneri VapB antitoxin (His6-VapB) (natural protein, UniProt O06663 1-75, looked up, VapB antitoxin of the vapBC locus of the Shigella flexneri 2a virulence plasmid pMYSH6000; gene optimized for expression; No cleavage of the tag is described; In the assembly four copies of VapB stand with four of VapC (VapB4C4)) METTVFLSNRSQAVRLPKAVALPENVKRVEVIAVGRTRIITPAGETWDEWFDGHSVSTDFMDNREQPGMQERESF | 4 | 2 |  |
| Shigella flexneri VapC toxin (MvpT) (natural protein, Untagged in this construct, purified through His6-VapB; also called PIN domain) MLKFMLDTNICIFTIKNKPASVRERFNLNQGKMCISSVTLMELIYGAEKSQMPERNLAVIEGFVSRIDVLDYDAAAATHTGQIRAELARQGRPVGPFDQMIAGHARSRGLIIVTNNTREFERVGGLRTEDWS | 4 |  |  |
| DNA III (dsDNA) DNA 1: ATAAACGTATATCCCTTTGACATATCCCGG DNA 2: CCGGGATATGTCAAAGGGATATACGTTTAT |  |  | binds |
